Results on 14 molecules are retold here after patent publication US20220289857A1 (Kyowa Kirin, published 2022).

Where a chain is given by its changes, count along the chain named. In names and notes the source's numbering stands. Several values for one entry are separate records, joined by “and”; a condition that tells them apart may be missing. Equal values may be shown once.

First the molecules themselves.
T1: human Fn14 (full length) on cells (human, UniProt Q9NP84 28-129)
T1 construct: Transfected 293F cells, or endogenous on HK2, HRMC, A375, HaCaT, primary keratinocytes and dermal fibroblasts; also called hFn14; TNFRSF12A
T1 sequence: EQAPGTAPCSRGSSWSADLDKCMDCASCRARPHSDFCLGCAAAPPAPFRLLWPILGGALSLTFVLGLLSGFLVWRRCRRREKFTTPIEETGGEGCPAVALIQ

T2: mouse Fn14 (full length) on transfected 293F cells (mouse, UniProt Q9CR75 28-129)
T2 sequence: T1 sequence with A7S, R11S, R29P, P47H, T62V, F63L, G66A, L68V, G70S, A97G

B1: A553/A472 humanized IgG4 Nullbody, kappa antibody (antibody, V domains shown)
VH: QVQLVQSGAEVKKPGASVKVSCKASGYIFQDYNMHWVKQAPGQGLEWIGSINPRNAWTNYNQKFKGKATITADTSTSTAYMELSSLRSEDTAVYYCASSGWFTYWGQGTLVTVSS
VL: DVVMTQSPLSLPVTIGQPASISCKSSQSLLNSAGKTYLNWLLQRPGQSPKRLIYLVSQLDSGVPDRFSGSGSGTDFTLKISRVEAEDVGVYYCWQGTFYPWTFGGGTKVEIKR
notes: also called hzR35B9(A56)-HV7c / hzR35B9-LV4
B2: A641/A468 humanized IgG4 Nullbody, kappa antibody (antibody)
heavy: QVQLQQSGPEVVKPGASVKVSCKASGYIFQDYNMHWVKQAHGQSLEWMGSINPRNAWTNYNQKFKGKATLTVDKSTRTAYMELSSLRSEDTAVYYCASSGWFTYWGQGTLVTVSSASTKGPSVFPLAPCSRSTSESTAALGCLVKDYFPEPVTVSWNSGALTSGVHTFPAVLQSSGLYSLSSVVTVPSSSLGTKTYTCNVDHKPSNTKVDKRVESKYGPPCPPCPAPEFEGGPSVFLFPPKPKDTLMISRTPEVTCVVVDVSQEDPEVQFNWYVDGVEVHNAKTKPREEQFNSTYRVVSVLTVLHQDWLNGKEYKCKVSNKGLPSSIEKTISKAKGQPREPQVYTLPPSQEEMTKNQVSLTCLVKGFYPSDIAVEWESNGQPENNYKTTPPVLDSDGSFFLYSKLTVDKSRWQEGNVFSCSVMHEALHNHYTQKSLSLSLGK
light: DVVMTQSPLSLPVTLGQPASISCKSSQSLLNSAGKTYLNWLQQRPGQSPRRLIYLVSQLDSGVPDRFSGSGSGTDFTLKISRVEAEDVGVYYCWQGTFYPWTFGGGTKVEIKRTVAAPSVFIFPPSDEQLKSGTASVVCLLNNFYPREAKVQWKVDNALQSGNSQESVTEQDSKDSTYSLSSTLTLSKADYEKHKVYACEVTHQGLSSPVTKSFNRGEC
B3: A648/A468 humanized IgG4 Nullbody, kappa antibody (antibody, V domains shown)
VH: QVQLQQSGPEVVKPGASVKVSCKASGYIFQDYNMHWVKQAHGQSLEWMGSINPRNAWTNYNDKFKGKATLTVDKSTRTAYMELSSLRSEDTAVYYCASSGWFTYWGQGTLVTVSS
VL: B1 VL with I15L, L42Q, K50R
B4: A515/A518 humanized IgG4 Nullbody, kappa antibody (antibody, V domains shown)
VH: B1 VH with K12V, K38R, P41H, I48M, S50Y, W57G, K67R, A68V, T74K, S77R
VL: B1 VL with I15L, L42Q, K50R, F98H
notes: also called hzR35B9(Y50A56G57)-HV7b / hzR35B9(H98)-LV1a
B5: A512/A468 humanized IgG4 Nullbody, kappa antibody (antibody, V domains shown)
VH: B3 VH with Q5V, K38R, D62Q, K67R, L70I
VL: B1 VL with I15L, L42Q, K50R
notes: Human IgG4null constant (S228P, L235E, R409K); also called hzR35B9(A56)-HV11 / hzR35B9-LV1a
B6: A650/A468 humanized IgG4 Nullbody, kappa antibody (antibody)
heavy: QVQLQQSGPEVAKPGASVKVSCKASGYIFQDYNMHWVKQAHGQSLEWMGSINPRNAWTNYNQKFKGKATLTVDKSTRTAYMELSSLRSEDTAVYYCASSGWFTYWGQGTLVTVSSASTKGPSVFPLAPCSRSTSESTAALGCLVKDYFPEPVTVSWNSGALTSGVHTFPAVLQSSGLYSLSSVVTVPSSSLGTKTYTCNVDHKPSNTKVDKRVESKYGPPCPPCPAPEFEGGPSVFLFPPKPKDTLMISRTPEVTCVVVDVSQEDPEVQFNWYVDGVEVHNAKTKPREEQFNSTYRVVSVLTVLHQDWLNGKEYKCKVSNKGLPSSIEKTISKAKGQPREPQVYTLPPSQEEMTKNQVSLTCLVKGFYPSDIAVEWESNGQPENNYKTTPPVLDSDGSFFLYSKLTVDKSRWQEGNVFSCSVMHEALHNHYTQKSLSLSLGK
light: B2 light
B7: KO41c mouse monoclonal antibody (hybridoma-derived) (antibody, V domains shown)
VH: EVQLQQSGPELVKPGASVKMSCKASGYTFTDYNMHWVKQSHGKSLEWIGYINPNNGGTNYNQKFKGKATLTVNKSSRSAYMEFRSLTSEDSAVYYCASSGWFTYWGQGTLVTVSA
VL: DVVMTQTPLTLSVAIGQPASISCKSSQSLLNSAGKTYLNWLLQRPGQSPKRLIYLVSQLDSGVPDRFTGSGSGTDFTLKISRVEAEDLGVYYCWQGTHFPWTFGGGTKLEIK
notes: Hybridoma supernatant or purified antibody from an Fn14 knockout mouse; native mouse IgG, kappa
B8: chimeric R35B9 (antibody, human IgG4 S228P, kappa)
heavy chain: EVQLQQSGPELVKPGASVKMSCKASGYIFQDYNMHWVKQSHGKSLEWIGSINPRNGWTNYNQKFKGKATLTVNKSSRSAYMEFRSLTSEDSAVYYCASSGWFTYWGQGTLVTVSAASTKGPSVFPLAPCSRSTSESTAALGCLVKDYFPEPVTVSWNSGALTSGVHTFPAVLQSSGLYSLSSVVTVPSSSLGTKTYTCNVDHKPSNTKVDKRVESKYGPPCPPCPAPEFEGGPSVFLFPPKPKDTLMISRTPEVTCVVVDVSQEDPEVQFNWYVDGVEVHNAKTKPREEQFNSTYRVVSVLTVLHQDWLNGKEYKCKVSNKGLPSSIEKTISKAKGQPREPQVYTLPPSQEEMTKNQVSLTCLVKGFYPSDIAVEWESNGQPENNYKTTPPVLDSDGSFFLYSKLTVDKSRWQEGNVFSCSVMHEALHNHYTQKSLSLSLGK
light chain: B2 light with S7T, S10T, P12S, T14A, L15I, Q42L, R50K, S68T, V88L, V109L
notes: It may be the same molecule as m27, R35B9 (A451/A452), but neither the sheet nor the text says so; also called mouse-human chimeric R35B9
B9: R35B9 (A451/A452) antibody (antibody, V domains shown)
VH: B7 VH with T28I, T30Q, Y50S, N54R, G57W
VL: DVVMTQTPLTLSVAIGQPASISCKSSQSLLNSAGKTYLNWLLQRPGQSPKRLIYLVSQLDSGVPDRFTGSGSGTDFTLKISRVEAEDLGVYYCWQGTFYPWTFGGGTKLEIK
B10: R35B9(A56) (A486/A452) antibody (antibody, V domains shown)
VH: B7 VH with T28I, T30Q, Y50S, N54R, G56A, G57W
VL: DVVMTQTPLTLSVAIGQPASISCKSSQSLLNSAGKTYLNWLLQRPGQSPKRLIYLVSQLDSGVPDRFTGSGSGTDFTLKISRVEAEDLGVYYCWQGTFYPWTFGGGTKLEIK
notes: G56A in HCDR2 removes the NG deamidation site; Constant regions not clear
B11: A437/A290 mouse IgG1(D265A), kappa antibody (antibody, V domains shown)
VH: B7 VH with T28I, T30Q, N54R, G57W
VL: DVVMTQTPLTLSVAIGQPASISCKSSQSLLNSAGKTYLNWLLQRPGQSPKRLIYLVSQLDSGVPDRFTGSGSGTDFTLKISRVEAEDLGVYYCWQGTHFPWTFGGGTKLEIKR
B12: A448/A439 mouse IgG1(D265A), kappa antibody (antibody, V domains shown)
VH: B7 VH with T28I, T30Q, N54R
VL: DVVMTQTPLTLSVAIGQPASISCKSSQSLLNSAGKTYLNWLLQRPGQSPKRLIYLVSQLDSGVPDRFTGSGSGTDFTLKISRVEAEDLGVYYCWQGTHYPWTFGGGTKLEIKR
B13: A448/A290 mouse IgG1(D265A), kappa antibody (antibody, V domains shown)
VH: B7 VH with T28I, T30Q, N54R
VL: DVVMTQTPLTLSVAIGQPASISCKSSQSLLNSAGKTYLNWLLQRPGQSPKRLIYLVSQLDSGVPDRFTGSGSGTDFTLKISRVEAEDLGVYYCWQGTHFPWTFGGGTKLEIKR
B14: CRCBT-06-002 as mouse IgG1(D265A), kappa antibody (antibody, V domains shown)
VH: EVKLQQSGGGLVQPGGSMKLSCVASGFTFSYYWMNWVRQSPEQGLEWIAEIRLQSNDYPTHYAESVKGRFTISRDDSKNSVYLQMNNLRPEDTGIYYCACRYADYFDHWGQGTTLTVSS
VL: DTVLTQSPASLVVSLGQRATISCRASQSVSTSDYSYIHWYQQKPGQPPKFLIKYASNRDSGVPARFSGSGSGTDFTLNIHPVEEDDTAIYYCQHSWEIPPTFGAGTKLELQR

T4 sequence (Q9CR75 other isoform, or with tags, fused parts or gaps limits assumed): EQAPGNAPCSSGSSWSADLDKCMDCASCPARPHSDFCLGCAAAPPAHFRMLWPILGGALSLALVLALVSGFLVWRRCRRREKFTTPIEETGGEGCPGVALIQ

In the first assay the target is T3, His-SUMO-huFn14 (soluble human Fn14 aa 28-75 with N-terminal 6xHis-SUMO tag) (human).
T3 construct: also called His-SUMO-Fn14; His-SUMO-hFn14
T3 sequence (chain, as listed by the source limits assumed): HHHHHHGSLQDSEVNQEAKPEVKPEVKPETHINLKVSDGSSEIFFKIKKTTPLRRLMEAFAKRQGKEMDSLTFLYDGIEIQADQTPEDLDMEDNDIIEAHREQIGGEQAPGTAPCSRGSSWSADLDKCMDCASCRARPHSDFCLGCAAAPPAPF
As to the kind of experiment: SPR single-cycle kinetics; mAb captured by anti-human Fc, His-Sumo-Fn14 analyte; 1:1 fit. Here is the method: (§1) Alternatively, using a method referred to as “single cycle kinetics,” the His-Sumo-Fn14 was injected with increasing concentrations in a single cycle, the surface not being regenerated between injections. Specifically, anti-human Fc specific antibodies were immobilized on a CM5 sensor chip (cat# BR100012, GE Healthcare Life Sciences, Pittsburgh, Pennsylvania) by an amine coupling chemistry. Thereafter, humanized anti-Fn14 antibodies were captured at approximately 200 RUs, followed by injections of increasing concentrations of recombinant human His-Sumo-Fn14 protein. The association time was 120 seconds, and the final dissociation time was 900 seconds. At the end of the analyte injections, the surface was regenerated with 3M MgCl₂ for 30s. The raw data were double referenced by subtraction of the signals from a reference flow cell without immobilized ligand and a buffer blank. The sensorgram corresponding to each concentration was obtained (see FIG. 6B).
As usually defined, the Kd is the constant that tells how readily two partners part at equilibrium. By koff is commonly meant the rate constant with which the complex falls apart. In general, kon refers to a measure of how fast the partners come together. Read a low kon as slow association. With B1, the equilibrium dissociation constant (Kd) was 374 pM and 347 pM and 354 pM; the off-rate constant (koff) is 0.000804 s⁻¹ and 0.000812 s⁻¹ and 0.000799 s⁻¹; the kon is 2.2e+06 M⁻¹ s⁻¹ and 2.3e+06 M⁻¹ s⁻¹ (2×).
In the case of B2, the Kd was 262 pM and 249 pM and 257 pM; the koff was 0.000756 s⁻¹ and 0.000773 s⁻¹ and 0.000764 s⁻¹; the kon is 2.89e+06 M⁻¹ s⁻¹ and 3.11e+06 M⁻¹ s⁻¹ and 2.97e+06 M⁻¹ s⁻¹.
Take B3: the Kd is 0.191 nM and 0.237 nM (2×); the off-rate constant (koff) is 0.000531 s⁻¹ and 0.000756 s⁻¹ and 0.000742 s⁻¹; the kon was 2.78e+06 M⁻¹ s⁻¹ and 3.19e+06 M⁻¹ s⁻¹ and 3.13e+06 M⁻¹ s⁻¹.
For B4, the Kd is 461 pM and 473 pM and 477 pM; the dissociation rate constant (koff) was 0.00144 s⁻¹ and 0.00154 s⁻¹ and 0.0015 s⁻¹; the kon is 3.2e+06 M⁻¹ s⁻¹ (2×) and 3.1e+06 M⁻¹ s⁻¹.
B5: the Kd is 226 pM and 194 pM and 197 pM; the off-rate (koff) is 0.000679 s⁻¹ and 0.000664 s⁻¹ and 0.000652 s⁻¹; the kon is 3e+06 M⁻¹ s⁻¹ and 3.43e+06 M⁻¹ s⁻¹ and 3.31e+06 M⁻¹ s⁻¹.
On to B6, for which the Kd was 264 pM and 287 pM and 282 pM; the dissociation rate constant (koff) was 0.000871 s⁻¹ and 0.000843 s⁻¹ and 0.000825 s⁻¹; the kon is 3.3e+06 M⁻¹ s⁻¹ and 2.9e+06 M⁻¹ s⁻¹ (2×).

Another assay concerns the target T4, rat Fn14, endogenous on NRK-52E cells (rat, UniProt Q9CR75 28-129 (mouse entry)).
T4 construct: Endogenous protein of rat kidney cells; also called NRK52E-A15/Luc cells
Nature of the assay: flow cytometry on NRK-52E cells (endogenous rat Fn14), purified antibody 1 µg/mL, detected with anti-mouse IgG PE. On the procedure:
Primary antibodies were used at a concentration of 1 μg/mL and binding was detected using anti-mouse IgG PE.
(§2) Specifically, the binding activity of hybridoma culture supernatants or purified antibodies to Fn14-expressing cells was evaluated by flow cytometry (FCM). The cell lines evaluated by FCM were Fn14-transfected human embryonic kidney 293F cells (ThermoFisher, cat# R79007) and two cell lines endogenously expressing Fn14, human kidney-derived HK2 cells (ATCC, cat# CRL-2190) and rat kidney-derived NRK-52E cells (Japanese Collection of Research Bioresources Cell Bank (JCRB), cat# IF050480). For FCM analysis, Fn14-expressing cells were harvested using 0.25% trypsin-EDTA (Nacalai Tesque), washed with PBS, and resuspended in SM (Staining Medium: PBS containing 2% FBS, 1 mM EDTA, 0.05% sodium azide). Cells were then seeded in a 96-well plate at 1 ×10⁵ cells per well. Hybridoma supernatant or purified antibody (1 μg/mL final concentration) was added and the cells were incubated at 4° C. for 60 minutes. Cells were then washed with SM, resuspended in goat F(ab′)2 anti-mouse IgG-PE (Southern Biotech Inc.), diluted 1:500 in SM and incubated at 4° C. for 60 minutes. Cells were washed with SM and finally resuspended in 50 μL of SM. Fluorescence intensity was measured by FCM (BD Biosciences, FACS CantoII) and the data were analyzed using FlowJo software (Tomy Digital Biology Co., Ltd.).
(In general: In flow cytometry, cells or beads pass a laser one at a time.)
For the molecule B7, the binding result is “binds”.

The next assay concerns the target T1, human Fn14 (full length) on cells. As to the kind of experiment: flow cytometry blocking assay on HRMC: antibody for 30 min, then recombinant human TWEAK at 250 ng/mL for 45 min; bound TWEAK detected with biotinylated goat anti-human TWEAK and streptavidin-PE; blocked ligand: TWEAK. Here is the method: FIG. 25 depicts that humanized anti-Fn14 antibodies blocked TWEAK binding to Fn14 expressed on cells. HRMC were incubated with individual antibodies at various concentrations for 30 minutes followed by incubation with recombinant human TWEAK (250 ng/mL) for 45 minutes. Binding of TWEAK to HRMC cells was detected with biotinylated goat-anti-human TWEAK followed by streptavidin-PE. Stained cells were acquired on a Fortessa. % TWEAK blocking was calculated using the following formula: 100-(Geometric mean fluorescence intensity of sample—Geometric mean fluorescence intensity of cells without TWEAK)/(Geometric mean fluorescence intensity-TWEAK alone with no antibody—Geometric mean fluorescence intensity of cells without TWEAK)*100.
HRMC cells were incubated with individual antibodies at various concentrations (0.015625-1 ng/mL) for 30 minutes at room temperature. Recombinant human TWEAK (R&D Systems, Cat# 1090-TW/CF) was then added to the cells and incubated for 45 minutes at room temperature. Binding of TWEAK to HRMC cells was detected with a biotinylated goat-anti-human TWEAK (R&D Systems, Cat# BAF1090) followed by streptavidin-PE (Biolegend, Cat# 405204). Stained cells were acquired on a Fortessa. % TWEAK blocking was calculated using the following formula: 100-(Geometric mean fluorescence intensity of sample—Geometric mean fluorescence intensity of cells without TWEAK)/(Geometric mean fluorescence intensity—TWEAK alone with no antibody—Geometric mean fluorescence intensity of cells without TWEAK)*100.
For the molecule B1, the binding result is on record as “binds”.
Turning to B8, the “IC50 (read off the curve)” value is around 0.2 µg/mL.
B4: the binding result is on record as “binds”.
Turning to B5, the “IC50 (read off the curve)” value is around 0.3 µg/mL.

A further assay has as its target T2, mouse Fn14 (full length) on transfected …. Nature of the assay: flow cytometry, hybridoma supernatant on 293F cells transfected with mouse Fn14, detected with anti-mouse IgG PE. Here is the method:
FIG. 1 depicts binding of anti-Fn14 hybridoma supernatants to human and mouse Fn14 transfected cells. […] Hybridoma supernatant binding was detected using anti-mouse IgG PE.
as §2, with “Cells were washed with SM and finally resuspended in 50 μL of SM.” left out
For the molecule B7, the binding result was “binds”.

The target of the next assay is T3, His-SUMO-huFn14 (soluble human Fn14 aa …). As to the kind of experiment: SPR single-cycle kinetics; mAb captured by anti-human Fc, His-Sumo-Fn14 analyte; average of three runs. Here is the method: as §1
Molecule B1 showed a dissociation constant (Kd) of 358 pM.
On the same count and under the same terms, the result for B2 reads 256 pM; that for B3, 222 pM.
B4 returned a dissociation constant Kd of 470 pM.
B5 gave a Kd of 206 pM.
Molecule B6 gave an equilibrium dissociation constant (Kd) of 278 pM.

The next assay shares this target. As to the kind of experiment: SPR Biacore; His-Sumo-huFn14 0.111-9 nM. In general terms: In SPR one partner is held on a chip, and binding of the other changes the refractive index at the surface.
The molecule B9 gave a Kd of 132 pM, a koff of 0.000994 s⁻¹ and a kon of 7.52e+06 M⁻¹ s⁻¹.
The like results for B10 were, in that order, 71.4 pM, 0.000354 s⁻¹ and 4.96e+06 M⁻¹ s⁻¹.

The target of the next assay is T1, human Fn14 (full length) on cells. Nature of the assay: cell-based or functional assay.
Turning to B11, the “ICAM-1 MFI on HRMC, 250 ng/mL rhTWEAK, mAb 0.1 µg/mL” value was 5110 MFI.
On to B12, for which the “ICAM-1 MFI on HRMC, 250 ng/mL rhTWEAK, mAb 0.1 µg/mL” value amounted to 5480 MFI.
The same measure, in the same setting: the result for B13 reads 6430 MFI; that for B14, 11800 MFI.
